# Measured values taken from the supplement of paper PMC10567573.
# B1: CHMP4C (parent)
# chain: SSKSRAAPSPQEALVRLRETEEML
# Variants of: B1
# Assay: protein stability index of a GFP-peptide fusion (GPS, HEK-293T) (PSI 1-6); higher = more stable
# Details: c terminus: a fixed tail appended
# 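Further: lentivirally expressed fusions sorted by FACS into six bins by GFP to DsRed ratio, PSI derived from sequencing read proportions per bin multiplied by bin number.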
row,Variant,protein stability index
1,STKSRAAPSPQEALVRLRETEEML,1.78
2,SCKSRAAPSPQEALVRLRETEEML,2.38
3,SAKSRAAPSPQEALVRLRETEEML,2.44
4,SEKSRAAPSPQEALVRLRETEEML,1.86
5,SSKSRAAPSPQCALVRLRETEEML,2.96
6,SSKSRAAPSPQGALVRLRETEEML,2.23
7,SSKSRAAPSPQFALVRLRETEEML,2.75
8,SSKSRAAPSPQKALVRLRETEEML,4.3
9,SSKSRAAPSPQHALVRLRETEEML,3.06
10,SSKSRAAPSPQMALVRLRETEEML,2.05
11,SSKSRAAPSPQLALVRLRETEEML,3.27
12,SSKSRAAPSPQWALVRLRETEEML,2.67
13,SSKSRAAPSPQVALVRLRETEEML,2.81
14,SSKSRAAPSPQSALVRLRETEEML,2.06
15,SSKSLAAPSPQEALVRLRETEEML,1.48
16,SSKSDAAPSPQEALVRLRETEEML,2.36
17,SSKSCAAPSPQEALVRLRETEEML,1.78
18,SSKSGAAPSPQEALVRLRETEEML,1.3
19,SSKSTAAPSPQEALVRLRETEEML,2.17
20,SSKSRAAPSPQEALVRLREQEEML,4.83
21,SSKSRAAPSPQEALVRLREVEEML,3.14
22,SSKSRAAPSPQEALVRLREPEEML,5.12
23,SSKSRAAPSPQEALVRLREIEEML,3.27
24,SSKSRAAPSPQEALVRLRECEEML,4.19

row,Variant,protein stability index
1,SSKSRAAPSPQEALVRLREDEEML,2.08
2,SSKSRAAPSPQEALVRLREWEEML,3.45
3,SSKSRAAPSRQEALVRLRETEEML,4.01
4,SSKSRAAPSVQEALVRLRETEEML,1.81
5,SSKSRAAPSYQEALVRLRETEEML,2.99
6,SSKSRAAPSEQEALVRLRETEEML,3.41
7,SSKSRAAPSCQEALVRLRETEEML,3.05
8,SSKSRAAPSSQEALVRLRETEEML,3.85
9,SSKSRAAPSWQEALVRLRETEEML,1.67
10,SSKSRAAPSKQEALVRLRETEEML,4.6
11,SSKSRAAPSNQEALVRLRETEEML,4.79
12,SSKSRAAPSHQEALVRLRETEEML,4.21
13,SSKSRAAPSQQEALVRLRETEEML,4.58
14,SSKSRAAPSTQEALVRLRETEEML,4.26
15,SSKSRAAPSPQEALVRARETEEML,4.71
16,SSKSRAAPSPQEALVRSRETEEML,5.01
17,SSKSRAAPSPQEALVRGRETEEML,5.31
18,SSKSRAAPSPQEALVRERETEEML,5.68
19,SSKSRAAPSPQEALVRNRETEEML,4.59
20,SSKSRAAPSPQEALVRHRETEEML,4.79
21,SSKSRAAPSPQEALVRFRETEEML,4.28
22,SSKSRAAPSPQEALVRIRETEEML,1.76
23,SSKSRAAPSPQEALVRTRETEEML,5.6
24,SSKSRAAPSPQEALVRRRETEEML,5.53

row,Variant,protein stability index
1,SSKSRAAPSPQEALVRYRETEEML,4.4
2,SSKSRAAPSPQEALVRLRETEPML,4.66
3,SSKSRAAPSPQEALVRLRETEGML,2.44
4,SSKSRAAPSPQEALVRLRETEVML,2.84
5,SSKSRAAPSPQEALVRLRETEQML,2.31
6,SSKSRAAPSPQEALVRLRETEFML,2.05
7,SSKSRAAPSPQEALVRLRETEWML,1.71
8,SSKSRAAPSPQEALVRLRETEMML,1.82
9,SSKSRAAPSPQEALVRLRETEDML,2.14
10,SSKSRAAPSPQEALVRLRETEIML,2.92
11,SSKSRAAPSPQEALVRLRETETML,3.01
12,SSKSRAAPSPQEALVRLRSTEEML,3.01
13,SSKSRAAPSPQEALVRLRGTEEML,2.44
14,SSKSRAAPSPQEALVRLRCTEEML,2.66
15,SSKSRAAPSPQEALVRLRRTEEML,3.52
16,SSKSRAAPSPQEALVRLRNTEEML,2.27
17,SSKSRAAPSPQEALVRLRITEEML,4.1
18,SSKSRAAPSPQEALVRLRPTEEML,4.63
19,SSKSRAAPSPQEALVRLRQTEEML,1
20,SSKSRAAPSPQEALVRLRHTEEML,2.9
21,SSKSRAAPSPQEALVRLRKTEEML,3.19
22,SSKSRAAPSPQEALVRLRWTEEML,2.36
23,SSKSRAAPSPQEALVRLRYTEEML,1.97
24,SSKSRAAPSPQEALVRLRATEEML,2.6

row,Variant,protein stability index
1,SSASRAAPSPQEALVRLRETEEML,1.97
2,SSDSRAAPSPQEALVRLRETEEML,3.17
3,SSWSRAAPSPQEALVRLRETEEML,1.74
4,SSTSRAAPSPQEALVRLRETEEML,1.79
5,SSKSRAAPSPQEALDRLRETEEML,1.85
6,SSKSRAAPSPQEALMRLRETEEML,2.17
7,SSKSRAAPSPQEALSRLRETEEML,2.18
8,SSKSRAAPSPQEALKRLRETEEML,2.48
9,SSKSRAAPSPQEALVRLSETEEML,2.17
10,SSKSRAAPSPQEALVRLFETEEML,1.83
11,SSKSRAAPSPQEALVRLEETEEML,4.89
12,SSKSRAAPSPQEALVRLNETEEML,1.8
13,SSKSRAAPSPQEALVRLPETEEML,5.12
14,SSKSRAAPSPQEALVRLYETEEML,2.45
15,SSKSRAAPSPQEALVRLHETEEML,5.68
16,SSKSRAAPSPQEALVRLKETEEML,2.15
17,SSKSRAAPSPQEALVRLLETEEML,4.8
18,SSKSRAAPSPQEALVRLQETEEML,2.57
19,SSKSRAAPSPQEALVRLAETEEML,1.51
20,SSKSRAAPSPQEALVRLDETEEML,5.46
21,SSKSRAAPSPQECLVRLRETEEML,1.82
22,SSKSRAAPSPQEHLVRLRETEEML,3.99
23,SSKSRAAPSPQEYLVRLRETEEML,2.3
24,SSKSRAAPSPQEDLVRLRETEEML,5.58

row,Variant,protein stability index
1,SSKSRAAPSPQELLVRLRETEEML,2.06
2,SSKSRAAPSPQEGLVRLRETEEML,3.34
3,SSKSRAAPSPQEWLVRLRETEEML,3.33
4,SSKSRAAPSPQEKLVRLRETEEML,4.47
5,SSKSRAAPSPPEALVRLRETEEML,3.7
6,SSKSRAAPSPAEALVRLRETEEML,2.68
7,SSKSRAAPSPCEALVRLRETEEML,1.78
8,SSKSRAAPSPKEALVRLRETEEML,1.9
9,SSKSRAAPSPFEALVRLRETEEML,1.01
10,SSKSRAAPSPVEALVRLRETEEML,3.06
11,SSKSRAAPSPTEALVRLRETEEML,1.16
12,SSKSRAAPSPQEALVQLRETEEML,2.49
13,SSKSRAAPSPQEALVTLRETEEML,4.39
14,SSKSRAAPSPQEALVHLRETEEML,1.63
15,SSKSRAAPSPQEALVDLRETEEML,1.98
16,SSKSRAAPSPQEALVYLRETEEML,2.22
17,SSKSRAAPSPQEALVELRETEEML,2.24
18,SSKSRAAPSPQEALVRLRETEEMM,3.11
19,SSKSRAAPSPQEALVRLRETEEMS,4.53
20,SSKSRAAPSPQEALVRLRETEEMT,3.92
21,SSKSRAAPSPQEALVRLRETEEMF,4.25
22,SSKSRAAPSPQEALVRLRETEEMR,4.22
23,SSKSRAAPSPQEALVRLRETEEMG,4.97
24,SSKSRAAPSPQEALVRLRETEEMD,5.37

row,Variant,protein stability index
1,SSKSRAAPSPQEALVRLRETEEMN,5.32
2,SSKSRAAPSPQEALVRLRETEEMQ,5.69
3,SSKSRAAPSPQEALVRLRETEEME,5.94
4,SSKSRAAPSPQEALVRLRETEEMI,2.52
5,SSKSRAAPSPQEALVRLRETEEMY,3.64
6,SSKSRAAPSPQEALVRLRETSEML,4.09
7,SSKSRAAPSPQEALVRLRETQEML,3.95
8,SSKSRAAPSPQEALVRLRETAEML,4.28
9,SSKSRAAPSPQEALVRLRETWEML,2.39
10,SSKSRAAPSPQEALVRLRETYEML,2.3
11,SSKSRAAPSPQEALVRLRETNEML,4.49
12,SSKSRAAPSPQEALVRLRETFEML,3.21
13,SSKSRAAPSPQEALVRLRETMEML,4.23
14,SSKSRAAPSPQEALVRLRETIEML,2.83
15,SSKSRAAPSPQEALVRLRETDEML,4
16,SSKSRAAPSPQEALVRLRETTEML,2.81
17,SSKSRAAPSPQEALVRLRETGEML,3.63
18,SSKSRHAPSPQEALVRLRETEEML,1.28
19,SSKSRNAPSPQEALVRLRETEEML,1.61
20,SSKSRKAPSPQEALVRLRETEEML,1.8
21,SSKSRFAPSPQEALVRLRETEEML,2.83
22,SSKSRDAPSPQEALVRLRETEEML,1.81
23,SSKSRIAPSPQEALVRLRETEEML,2.15
24,SSKSRRAPSPQEALVRLRETEEML,1.96

row,Variant,protein stability index
1,SSKSRYAPSPQEALVRLRETEEML,4.65
2,SSKTRAAPSPQEALVRLRETEEML,2.58
3,SSKDRAAPSPQEALVRLRETEEML,1.4
4,SSKSRAAWSPQEALVRLRETEEML,2.56
5,SSKSRAANSPQEALVRLRETEEML,2.54
6,SSKSRAAVSPQEALVRLRETEEML,4
7,SSKSRAAQSPQEALVRLRETEEML,1.95
8,SSKSRAACSPQEALVRLRETEEML,1.87
9,SSKSRAAPAPQEALVRLRETEEML,2.38
10,SSKSRAAPVPQEALVRLRETEEML,3.85
11,SSKSRAAPRPQEALVRLRETEEML,3.19
12,SSKSRAAPCPQEALVRLRETEEML,1.54
13,SSKSRAAPIPQEALVRLRETEEML,3.22
14,SSKSRAAPTPQEALVRLRETEEML,1.94
15,SSKSRAAPSPQEALVRLRETEEDL,4.26
16,SSKSRAAPSPQEALVRLRETEEYL,1.41
17,SSKSRAAPSPQEALVRLRETEEKL,2.15
18,SSKSRAAPSPQEALVRLRETEEAL,2.07
19,SSKSRAAPSPQEALVRLRETEESL,3.95
20,SSKSRAAPSPQEALVRLRETEEFL,2.24
21,SSKSRAAPSPQEALVRLRETEEPL,4.44
22,SSKSRAAPSPQEALVRLRETEEHL,4.34
23,SSKSRAAPSPQEALVRLRETEEEL,2.08
24,SSKSRAAPSPQEAPVRLRETEEML,5.2

row,Variant,protein stability index
1,SSKSRAAPSPQEATVRLRETEEML,4.6
2,SSKSRAAPSPQEAVVRLRETEEML,3
3,SSKSRAAPSPQEAWVRLRETEEML,1.42
4,SSKSRAAPSPQEAHVRLRETEEML,4.46
5,SSKSRAAPSPQEAKVRLRETEEML,4.46
6,SSKSRAAPSPQEAFVRLRETEEML,4.77
7,SSKSRAAPSPQEASVRLRETEEML,4.33
8,SSKSRAAPSPQEAYVRLRETEEML,2.49
9,SSKSRAAPSPQEAMVRLRETEEML,2.41
10,SSKSRAAPSPQEARVRLRETEEML,2.92
11,SSKSRAAPSPQEAAVRLRETEEML,3.39
12,HSKSRAAPSPQEALVRLRETEEML,1.97
13,ESKSRAAPSPQEALVRLRETEEML,1.3
14,VSKSRAAPSPQEALVRLRETEEML,3.02
15,SSKSRAVPSPQEALVRLRETEEML,2.56
16,SSKSRAQPSPQEALVRLRETEEML,2.32
17,SSKSRATPSPQEALVRLRETEEML,4.48
18,SSKSRAMPSPQEALVRLRETEEML,3.21
19,SSKSRAKPSPQEALVRLRETEEML,1.45
20,SSKSRAPPSPQEALVRLRETEEML,1.03
